How the values were obtained:
PD-L2(人) = molecular target: T1, PD-L2(人) (human, UniProt Q9BQ51 20-220, limits assumed); test: ELISA, antigen coated 0.5 μg per well, detection with rabbit anti-HA and HRP goat anti-rabbit
T1 construct: also called 人PD-L2
T1 sequence (looked up): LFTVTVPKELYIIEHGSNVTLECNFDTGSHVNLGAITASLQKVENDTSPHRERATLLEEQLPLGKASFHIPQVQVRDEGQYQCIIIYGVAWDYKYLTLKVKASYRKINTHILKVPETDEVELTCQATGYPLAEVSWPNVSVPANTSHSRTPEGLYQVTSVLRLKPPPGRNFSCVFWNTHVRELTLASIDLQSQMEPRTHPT

PD-L1(鼠) = molecular target: T2, PD-L1(鼠) (鼠 (murine), UniProt Q9EP73 19-239, limits assumed); test: as above
T2 construct: also called 鼠源的PD-L1
T2 sequence (Q9EP73 19-239 limits assumed): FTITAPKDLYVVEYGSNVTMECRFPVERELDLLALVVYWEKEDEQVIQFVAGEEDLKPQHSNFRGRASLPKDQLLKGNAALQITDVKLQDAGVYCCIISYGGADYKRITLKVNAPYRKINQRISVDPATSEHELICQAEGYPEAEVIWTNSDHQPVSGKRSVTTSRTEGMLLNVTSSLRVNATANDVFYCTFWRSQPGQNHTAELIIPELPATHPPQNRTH

B1: 抗PD-L1Nb15 (VHH)
VHH: QVQLVESGGGSVQAGGALRLSCAASGYTSTSNCMGWFRQAPGKEREGVAAIYTGGGSTYYADSVKGRFTISQDNAKNTVYLQMNSLKPEDTAMYYCAAGDLDPAEYSDYDPTVFNYWGQGTLVTVSS
notes: Expressed from pET32a in E. coli BL21(DE3), purified on Ni-IDA and detected in ELISA with an anti-HA antibody; the vector-derived tags are not described; also called antiPD-L1Nb15; 抗PD-L1-VHH15
PD-L2(人)
  binding result: no binding (tested: 10μg/mL)
PD-L1(鼠)
  binding result: no binding (tested: 10μg/mL)

— patent CN109265548A (UNIV SOUTHEAST, dated 2019)
